US20250262210A1 (TRUSTEES OF COLUMBIA UNIVERSITY IN THE CITY OF NEW YORK, published 2025)

Legend:
SREBF2 = target: T1, SREBF2 (human, UniProt Q12772 1-1141, limits assumed); assay: IP/MS, LZTR1 wild type-FLAG, U87
T1 sequence (looked up): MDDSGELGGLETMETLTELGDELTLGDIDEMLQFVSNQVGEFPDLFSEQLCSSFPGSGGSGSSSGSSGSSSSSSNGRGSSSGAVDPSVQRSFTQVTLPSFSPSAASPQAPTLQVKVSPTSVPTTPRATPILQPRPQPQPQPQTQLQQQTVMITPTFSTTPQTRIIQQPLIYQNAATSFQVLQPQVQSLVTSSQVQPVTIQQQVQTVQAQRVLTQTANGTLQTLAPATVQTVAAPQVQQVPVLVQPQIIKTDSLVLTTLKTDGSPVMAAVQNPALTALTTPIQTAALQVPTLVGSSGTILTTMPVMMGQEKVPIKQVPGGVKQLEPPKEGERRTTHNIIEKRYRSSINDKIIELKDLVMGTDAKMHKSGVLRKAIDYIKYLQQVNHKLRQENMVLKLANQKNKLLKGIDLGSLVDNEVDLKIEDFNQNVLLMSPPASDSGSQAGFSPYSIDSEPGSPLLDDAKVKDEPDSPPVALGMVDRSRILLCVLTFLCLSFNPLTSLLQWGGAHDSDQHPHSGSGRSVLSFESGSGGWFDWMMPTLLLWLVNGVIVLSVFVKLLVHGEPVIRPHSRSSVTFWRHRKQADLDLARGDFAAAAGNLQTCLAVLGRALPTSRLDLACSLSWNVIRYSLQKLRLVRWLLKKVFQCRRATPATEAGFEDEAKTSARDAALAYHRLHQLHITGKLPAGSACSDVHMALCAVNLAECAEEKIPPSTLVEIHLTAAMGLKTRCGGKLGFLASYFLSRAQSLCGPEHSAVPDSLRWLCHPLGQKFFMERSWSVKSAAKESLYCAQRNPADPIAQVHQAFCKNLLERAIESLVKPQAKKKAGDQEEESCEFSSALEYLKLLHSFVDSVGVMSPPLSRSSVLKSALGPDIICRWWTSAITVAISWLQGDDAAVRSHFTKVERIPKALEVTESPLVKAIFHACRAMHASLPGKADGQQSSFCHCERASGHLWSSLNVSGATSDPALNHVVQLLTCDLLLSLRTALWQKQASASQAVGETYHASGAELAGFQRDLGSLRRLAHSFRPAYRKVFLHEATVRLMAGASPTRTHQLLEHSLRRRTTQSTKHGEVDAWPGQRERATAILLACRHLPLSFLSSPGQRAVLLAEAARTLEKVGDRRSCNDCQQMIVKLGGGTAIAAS
In short: (§1)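 Read-out: spectral counts from LC-MS/MS (Orbitrap Fusion) after MaxQuant identification. Variable modifications were Met oxidation, protein N-terminal acetylation and N/Q deamidation.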

LAMB3 = target: T2, LAMB3 (human, UniProt Q13751 18-1172); assay: IP/MS, LZTR1 wild type-FLAG, U87
T2 sequence (looked up): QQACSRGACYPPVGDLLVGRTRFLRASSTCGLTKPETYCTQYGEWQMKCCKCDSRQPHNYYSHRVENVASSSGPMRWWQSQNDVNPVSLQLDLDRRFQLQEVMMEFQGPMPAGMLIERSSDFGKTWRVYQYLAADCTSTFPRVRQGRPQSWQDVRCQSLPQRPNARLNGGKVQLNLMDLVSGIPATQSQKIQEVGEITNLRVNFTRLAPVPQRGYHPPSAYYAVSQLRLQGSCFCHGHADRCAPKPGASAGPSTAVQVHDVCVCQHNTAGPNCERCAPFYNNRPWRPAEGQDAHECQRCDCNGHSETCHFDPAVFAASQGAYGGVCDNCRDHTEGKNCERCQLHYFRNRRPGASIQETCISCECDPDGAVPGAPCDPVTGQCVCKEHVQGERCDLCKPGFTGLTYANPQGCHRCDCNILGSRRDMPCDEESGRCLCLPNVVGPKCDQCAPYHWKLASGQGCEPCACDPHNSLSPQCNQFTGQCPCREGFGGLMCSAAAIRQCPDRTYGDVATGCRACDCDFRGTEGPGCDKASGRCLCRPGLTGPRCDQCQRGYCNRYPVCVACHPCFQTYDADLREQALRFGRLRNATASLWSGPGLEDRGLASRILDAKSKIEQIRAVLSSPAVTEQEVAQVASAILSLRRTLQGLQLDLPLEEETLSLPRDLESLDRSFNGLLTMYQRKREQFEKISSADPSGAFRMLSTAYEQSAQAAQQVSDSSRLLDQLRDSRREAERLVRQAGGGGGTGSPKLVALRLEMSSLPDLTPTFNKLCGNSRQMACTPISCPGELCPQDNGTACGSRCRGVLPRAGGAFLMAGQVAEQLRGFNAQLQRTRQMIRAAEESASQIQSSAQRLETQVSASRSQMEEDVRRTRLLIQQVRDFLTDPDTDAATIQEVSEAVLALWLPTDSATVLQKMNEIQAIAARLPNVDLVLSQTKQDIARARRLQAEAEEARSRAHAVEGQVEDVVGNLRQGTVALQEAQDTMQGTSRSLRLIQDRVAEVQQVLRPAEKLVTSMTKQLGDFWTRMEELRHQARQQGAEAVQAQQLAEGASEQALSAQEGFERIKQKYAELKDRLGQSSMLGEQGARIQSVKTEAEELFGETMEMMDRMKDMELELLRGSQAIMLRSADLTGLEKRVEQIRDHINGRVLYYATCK
In short: as §1

- binding result (SREBF2): binds
- binding result (LAMB3): binds
B1: LZTR1-FLAG (other, human, UniProt Q8N653 1-840, looked up)
chain: MAGPGSTGGQIGAAALAGGARSKVAPSVDFDHSCSDSVEYLTLNFGPFETVHRWRRLPPCDEFVGARRSKHTVVAYKDAIYVFGGDNGKTMLNDLLRFDVKDCSWCRAFTTGTPPAPRYHHSAVVYGSSMFVFGGYTGDIYSNSNLKNKNDLFEYKFATGQWTEWKIEGRLPVARSAHGATVYSDKLWIFAGYDGNARLNDMWTIGLQDRELTCWEEVAQSGEIPPSCCNFPVAVCRDKMFVFSGQSGAKITNNLFQFEFKDKTWTRIPTEHLLRGSPPPPQRRYGHTMVAFDRHLYVFGGAADNTLPNELHCYDVDFQTWEVVQPSSDSEVGGAEVPERACASEEVPTLTYEERVGFKKSRDVFGLDFGTTSAKQPTQPASELPSGRLFHAAAVISDAMYIFGGTVDNNIRSGEMYRFQFSCYPKCTLHEDYGRLWESRQFCDVEFVLGEKEECVQGHVAIVTARSRWLRRKITQARERLAQKLEQEAAPVPREAPGVAAGGARPPLLHVAIREAEARPFEVLMQFLYTDKIKYPRKGHVEDVLLIMDVYKLALSFQLCRLEQLCRQYIEASVDLQNVLVVCESAARLQLSQLKEHCLNFVVKESHFNQVIMMKEFERLSSPLIVEIVRRKQQPPPRTPLDQPVDIGTSLIQDMKAYLEGAGAEFCDITLLLDGHPRPAHKAILAARSSYFEAMFRSFMPEDGQVNISIGEMVPSRQAFESMLRYIYYGEVNMPPEDSLYLFAAPYYYGFYNNRLQAYCKQNLEMNVTVQNVLQILEAADKTQALDMKRHCLHIIVHQFTKVSKLPTLRSLSQQLLLDIIDSLASHISDKQCAELGADI
notes: Expressed in HEK 293T, HeLa or U87 cells; used as cell lysate; also called LZTR1 wild type-FLAG; LZTR1 WT; not shown: FLAG tag at the C-terminus
